Measured values reported in the RNAGym collection of RNA variant scans (doi:10.1073/pnas.2313332121).
This sample holds only a part of the variants without activity.

B1: TPR 5TU (parent)
chain: GGAUCUUCUCGAUCUAACAAAAAAGACAAAUCUGCCACAAAGCUUGAGAGCAUCUUCGGAUGCAGAGGCGGCAGCCUUCGGUGGCGCGAUAGCGCCAACGUUCUCAACUAUGACACGCAAAACGCGUGCUCCGUUGAAUGGAGUUUAUCAUG

Variants of: B1
Assay: polymerase ribozyme fitness, log enrichment relative to wild type (log ratio); higher = more active; in vitro selection for triplet polymerase activity
Procedure, shortened: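 Each subunit of a heterodimeric triplet polymerase ribozyme was mutagenized into a library by PCR, transcribed, and subjected to one round of in vitro selection, run in triplicate. Libraries were annealed with a biotinylated primer, the partner subunit and triplets, incubated frozen at −7 °C, and extended constructs were gel-excised, captured on streptavidin beads and recovered by RT-PCR. Input and output libraries were sequenced on Illumina, keeping genotypes with ≥10 input reads and ≥1 read per output. Fitness is log base 2 of genotype enrichment divided by wild-type enrichment, from inverse-variance-weighted replicate averages.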

| Variant | polymerase ribozyme fitness (log ratio) |
| --- | --- |
| C76G G83A U139A U146C U148C | ≤ -4.2 |
| G81A C87U A97C U101A U104G C116U | -4.01 |
| G80A C99G U127C | -2.19 |
| C76U U78C A106C | -1.92 |
| C76U U78A A107U G126A | ≤ -4.2 |
| G83A A147C | 0.0173 |
| U78G G88U | ≤ -4.2 |
| G80A C85G | -1.38 |
| C76G A97U | ≤ -4.2 |
| C79G U82A C87U C103A | ≤ -4.2 |
| G83A A107G G136A G140A | ≤ -4.2 |
| G80A G92C | -0.857 |
| G80A G92U | -3.2 |
| U78G C99G C103A U109G | ≤ -4.2 |
| G83A G92U C118G | -1.41 |
| C76U C79U G83U G94A C105U C118G C132G G136A | ≤ -4.2 |
| G83C U104G C116U | -1.3 |
| G81A G86A C99G | -1.98 |
| G83U A97G A110U G117U | -3.7 |
| G83C G92U A137G | -3.45 |
| G83C A97G C108G | ≤ -4.2 |

| Variant | polymerase ribozyme fitness (log ratio) |
| --- | --- |
| U77G G84A G117U U135G | ≤ -4.2 |
| C79U G140U | -3.68 |
| G81C U102C A147G | -3.21 |
| G81C A119U G128U | -2.99 |
| C76A C85G | -3.53 |
| C76A C96U A121C | 0.584 |
| G81U A97U C105U | 0.976 |
| C75U G84U C99U A115C | -3.35 |
| G83U A98U C105U | -0.156 |
| C76A A89C | -0.238 |
| C79U U134A | -4.05 |
| G83U G140U G152U | -3.93 |
| G81C C85U A89U A142G | -1.67 |
| C76U C85U U101C U145G | -0.2 |
| C76U C85U A138C U144A | ≤ -4.2 |
| C79U A89C | -3.38 |
| G83C | -0.934 |
| G83U | -0.478 |
| G83A | -0.336 |
| G83C C132G | ≤ -4.2 |
| G81A G92A U101A | -3.21 |

| Variant | polymerase ribozyme fitness (log ratio) |
| --- | --- |
| G83A U134A | -2.04 |
| G80A A89U C95U A120G | -1.11 |
| G80A G84A C116A U135G | ≤ -4.2 |
| G81C U135C | -2.22 |
| U82C C96G A120U U127G | -2.72 |
| G81A A107U | -3.89 |
| G83A U90C | -3.51 |
| U78A C93U | ≤ -4.2 |
| G81A A97G C125U | -0.572 |
| G81A G133U | -3.84 |
| G81A G133C | -3.84 |
| C76U C95U U135C C149A | ≤ -4.2 |
| C76A G83A U134G | -3.45 |
| G80U A91C A106U C132G | ≤ -4.2 |
| G83A G88A A91G G112U G140U G143C | ≤ -4.2 |
| C76G C96A G140A | ≤ -4.2 |
| U82A C118U | -0.0134 |
| U77A G92U C99G | -4.06 |
| U77A C95U | ≤ -4.2 |
| C76A U145G | -0.329 |
| U82C C95A | -1.46 |

| Variant | polymerase ribozyme fitness (log ratio) |
| --- | --- |
| G83A G88U U111G U135A | ≤ -4.2 |
| G81C G84A A115C G133U C149U | ≤ -4.2 |
| G83C A113C | -3.35 |
| U78G C85G G140A | ≤ -4.2 |
| G83U G126A U148A | ≤ -4.2 |
| C76A C85A G92A G94U C103A C108U A122C | ≤ -4.2 |
| U77A U134G | ≤ -4.2 |
| G83U C95U C118U U144A | -3.4 |
| U82A A113C G117U G141C | ≤ -4.2 |
| G81A C95U | -1.88 |
| U82A C99A C118U | -1.42 |
| G83C U148A | -3.1 |
| U82G C93U C131G G140U U146A | ≤ -4.2 |
| C76A A121G | 0.0173 |
| G83A U135G G141A | -3.78 |
| U77A G88U C103G U151C | ≤ -4.2 |
| G83U C96U | -0.875 |
| C76U U101A | -1.35 |
| G80U G81A A142G | -1.49 |
| C75G A113U | ≤ -4.2 |
| G83A U135C | -2.09 |
